Patent US20040038894A1, “Compounds for modulating cell negative regulations and biological applications thereof” (INSTITUT NATIONAL DE LA SANTE ET DE LA RECHERCHE MEDICALE …, priority 1996, published 2004)
Where no end group is shown, it is not given here. [ ]: non-standard residue; d: D form. The star is where a group is joined. Biotin = O=C1N[C@H]2[C@H](CS[C@H]2CCCCC(=O)*)N1; pY = N[C@@H](Cc1ccc(OP(=O)(O)O)cc1)C(=O)O

T1: SHIP polyinositol phosphatase from RBL-2H3 cell lysates (rat (cell line RBL-2H3), UniProt P97573 1-1190, limits assumed)
T1 construct: Detected by immunoblot with anti-SHIP antiserum
T1 sequence (looked up): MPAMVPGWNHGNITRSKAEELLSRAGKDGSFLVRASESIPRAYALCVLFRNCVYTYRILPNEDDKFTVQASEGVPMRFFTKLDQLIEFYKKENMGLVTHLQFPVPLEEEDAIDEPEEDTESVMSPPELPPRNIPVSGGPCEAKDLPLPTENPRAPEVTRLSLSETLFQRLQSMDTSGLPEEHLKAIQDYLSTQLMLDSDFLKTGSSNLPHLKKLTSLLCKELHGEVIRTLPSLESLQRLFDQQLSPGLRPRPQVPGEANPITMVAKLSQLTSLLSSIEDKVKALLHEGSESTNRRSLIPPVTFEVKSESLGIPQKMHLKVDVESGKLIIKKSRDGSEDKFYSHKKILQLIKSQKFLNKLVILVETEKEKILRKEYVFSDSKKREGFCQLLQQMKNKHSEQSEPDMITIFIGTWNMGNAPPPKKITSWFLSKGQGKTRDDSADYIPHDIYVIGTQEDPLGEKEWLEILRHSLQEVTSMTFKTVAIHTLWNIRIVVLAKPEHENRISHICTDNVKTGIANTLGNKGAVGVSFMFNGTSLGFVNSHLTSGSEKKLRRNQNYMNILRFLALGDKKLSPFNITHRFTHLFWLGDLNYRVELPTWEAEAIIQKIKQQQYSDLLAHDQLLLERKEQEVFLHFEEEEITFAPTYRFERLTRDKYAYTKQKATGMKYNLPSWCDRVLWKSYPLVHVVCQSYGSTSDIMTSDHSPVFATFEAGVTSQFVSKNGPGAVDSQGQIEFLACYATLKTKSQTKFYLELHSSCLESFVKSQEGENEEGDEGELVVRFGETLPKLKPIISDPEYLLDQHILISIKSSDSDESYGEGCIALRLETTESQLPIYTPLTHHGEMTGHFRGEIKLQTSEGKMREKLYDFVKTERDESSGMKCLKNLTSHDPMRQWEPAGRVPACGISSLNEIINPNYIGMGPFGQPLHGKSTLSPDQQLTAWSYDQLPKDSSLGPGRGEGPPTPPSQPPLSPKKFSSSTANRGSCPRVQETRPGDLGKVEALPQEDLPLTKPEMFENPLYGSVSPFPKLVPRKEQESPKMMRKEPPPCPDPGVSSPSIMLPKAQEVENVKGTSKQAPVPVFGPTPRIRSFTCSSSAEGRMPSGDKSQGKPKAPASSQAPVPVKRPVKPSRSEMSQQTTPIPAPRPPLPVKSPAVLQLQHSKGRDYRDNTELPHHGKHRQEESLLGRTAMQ

T2: GST-SHIP.SH2 fusion protein (murine, UniProt Q9ES52 8-104)
T2 construct: also called SH2 domain of SHIP; not shown: Glutathione S-transferase (GST) fusion partner
T2 sequence (looked up): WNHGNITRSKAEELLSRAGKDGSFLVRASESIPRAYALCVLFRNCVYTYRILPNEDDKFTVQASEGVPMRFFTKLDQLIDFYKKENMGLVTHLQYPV

T3: SHP-2 protein tyrosine phosphatase from RBL-2H3 cell lysates (rat (cell line RBL-2H3), UniProt P41499 2-593)
T3 construct: Detected by immunoblot with anti-SHP-2 mAb
T3 sequence (looked up): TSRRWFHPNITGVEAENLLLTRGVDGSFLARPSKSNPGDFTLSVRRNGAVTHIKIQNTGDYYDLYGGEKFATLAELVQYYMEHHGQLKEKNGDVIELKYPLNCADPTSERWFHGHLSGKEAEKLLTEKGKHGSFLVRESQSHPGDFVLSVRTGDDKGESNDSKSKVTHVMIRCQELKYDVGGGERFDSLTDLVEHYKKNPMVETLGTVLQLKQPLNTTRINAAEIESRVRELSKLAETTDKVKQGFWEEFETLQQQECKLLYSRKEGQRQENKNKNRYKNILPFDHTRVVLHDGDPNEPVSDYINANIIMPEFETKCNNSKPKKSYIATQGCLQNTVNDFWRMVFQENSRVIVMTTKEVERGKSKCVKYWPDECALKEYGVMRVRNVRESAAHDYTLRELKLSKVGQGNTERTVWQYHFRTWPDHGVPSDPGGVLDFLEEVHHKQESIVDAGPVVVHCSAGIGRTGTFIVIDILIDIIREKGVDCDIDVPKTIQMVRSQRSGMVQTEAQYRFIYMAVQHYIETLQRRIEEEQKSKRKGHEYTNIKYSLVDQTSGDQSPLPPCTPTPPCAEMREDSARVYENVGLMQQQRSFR


Assays:
[1] = molecular target: T1, SHIP polyinositol phosphatase from …; test: cell lysate adsorption to peptide beads, immunoblot (RBL-2H3), FIG. 15A
Protocol: In an attempt to characterize the function of these putative ITIMs, cell lysates were incubated with phosphorylated and nonphosphorylated synthetic peptides corresponding to the N-terminal and the C-terminal I/VxYxxL stretches present in NKG2A intracytoplasmic domain. Cell lysates absorbed to peptides were then assayed by immunoblotting for the presence of the phosphatases known to interact with phosphorylated ITIMs, i.e. the protein tyrosine phosphatases SHP-1 and SHP-2, as well as the polyinositol phosphate phosphatase, SHIP. In parallel, lysates adsorption were performed using control peptides corresponding to ITIMs present in Ig-like ITIM bearing receptors such as human KIRs (p58.2/CD158b, a receptor for HLA-Cw3) and mouse FcγRIIB, as well as in mouse lectin-like ITIM-bearing receptor, such as Ly-49A.
As shown in FIG. 15A (lanes 1 and 2), both N- and C-terminal I/VxYxxL stretches present in NKG2A associate with SHP-1 and SHP-2 in vitro, but no binding to SHIP was detected. Similar patterns of association were obtained using the phosphorylated ITIM peptides of […] and p58.2 KIR (FIG. 15A, lanes 3 to 5). In contrast, FcγRIIB phosphorylated ITIM peptides also associate with SHIP (FIG. 15A, lane 6). No association of phosphatases with nonphosphorylated peptides corresponding to FcγRIIB (FIG. 15A, lane 7) and NKG2A N- and C-terminal I/VxYxxL stretches was detected. When nonphosphorylated and phosphorylated peptides were used to adsorb lysates prepared from ³⁵S methionine/cysteine-labeled cells, only two bands around 64 and 68 kDa selectively associate with both phosphorylated NKG2A N- and C-terminal I/VxYxxL stretches, as compared to nonphosphorylated ones (FIG. 15B). The 64 and 68 kDa proteins which bind to phosphorylated NKG2A peptides correspond to SHP-1 and SHP-2 apparent molecular weight respectively, supporting the immunoblotting results. Therefore, our results define the two NKG2A I/VxYxxL stretches as ITIMs which appear to function similarly to other ITIMs present in inhibitory receptors for MHC class I molecules, i.e. KIRs and Ly-49 molecules. Using recombinant soluble tandem SH2 domains of SHP-1 and SHP-2, we confirmed by surface plasmon resonance that both NKG2A ITIM phosphopeptides directly associate with the SH2 domains of SHP-1 and SHP-2, but not with the SH2 domain of SHIP (FIG. 16).

[2] = molecular target: T2, GST-SHIP.SH2 fusion protein; test: SPR (BIAcore) with recombinant GST fusion protein
Protocol: Fusion proteins and surface plasmon resonance analysis. Surface plasmon resonance (SPR) measurements were performed on a BIAcore™ (Pharmacia). The GST-SHP-1.SH2(NC), GST-SHP-1.SH2(N), GST-SHP-1.SH2(C), GST-SHIP.SH2 fusion proteins generated from the murine phosphatase cDNA, were purified from DH5α lysates. Briefly, overnight culture at 37° C. in LB medium containing 50 μg/ml ampicillin was diluted 1/10 in fresh medium, and incubated until the absorbance at 600 nm reaches 1-2. At that point, IPTG was added (1 mM), and incubation continued for an additional 4 hours at 37° C. After centrifugation, bacteria pellet was resuspended in TENGN buffer (50 mM Tris pH 8, 1 mM EDTA, 10% glycerol, 1% NP40, 1 mM DTT, 1 mM PMSF, 10 μg/ml aprotinin and 10 μg/ml leupeptine). Bacteria were lysed by sonication. After centrifugation, supernatant was incubated with Glutathione-Sepharose 4B beads (Pharmacia) overnight at 4° C. with slow shaking. After 3 washes with 50 mM Tris pH 8, elution of the fusion protein was carried out using 50 mM Tris pH 8 supplemented with 10 mM reduced glutathione. […] Protein purity was assessed by 12.5% SDS-PAGE, and Coomassie blue staining. […] Then, biotinylated peptides were injected, and their binding to streptavidine-coated microchips was assessed using anti-phosphotyrosine 4G10 mAb (UHI).

[3] = molecular target: T3, SHP-2 protein tyrosine phosphatase from …; test: cell lysate adsorption to peptide beads, immunoblot (RBL-2H3)
[4] = molecular target: T4, SHP-1 protein tyrosine phosphatase from RBL-2H3 cell lysates (rat (cell line RBL-2H3), UniProt P81718 1-613); test: as above
T4 construct: Detected by immunoblot with anti-SHP-1 mAb
T4 sequence (P81718 whole entry): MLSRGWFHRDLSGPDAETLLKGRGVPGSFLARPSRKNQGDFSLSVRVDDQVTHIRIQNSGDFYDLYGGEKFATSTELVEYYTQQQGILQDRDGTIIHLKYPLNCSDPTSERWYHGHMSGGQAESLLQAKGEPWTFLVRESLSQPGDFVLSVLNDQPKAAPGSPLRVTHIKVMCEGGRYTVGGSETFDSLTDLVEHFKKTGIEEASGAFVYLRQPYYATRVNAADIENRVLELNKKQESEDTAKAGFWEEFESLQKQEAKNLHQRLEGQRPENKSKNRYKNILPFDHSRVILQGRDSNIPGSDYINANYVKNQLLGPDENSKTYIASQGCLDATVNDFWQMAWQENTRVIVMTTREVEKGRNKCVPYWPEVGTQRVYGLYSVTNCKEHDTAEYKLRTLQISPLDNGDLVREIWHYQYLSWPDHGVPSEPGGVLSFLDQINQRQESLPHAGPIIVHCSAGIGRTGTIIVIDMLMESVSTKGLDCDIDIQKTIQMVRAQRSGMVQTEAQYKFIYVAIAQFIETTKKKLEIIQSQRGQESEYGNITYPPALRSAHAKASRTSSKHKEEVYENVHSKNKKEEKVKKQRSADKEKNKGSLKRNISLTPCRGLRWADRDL

binding result [1]	binding result [2]	binding result [3]	binding result [4]	Binder
no binding	no binding			Biotin-DEQDPQEVT[pY]AQLNH (also called p58.183.1; phosphorylated N-terminal KIR ITIM peptide) [phosphorylated p58.2.1 peptide (N-terminal KIR ITIM)]
no binding	no binding			Biotin-RPSQRPKTPPTDIIV[pY]TELPNAEP (also called p58.183.2; p58.133.2) [phosphorylated p58.2.2 peptide (C-terminal KIR ITIM)]
		no binding	no binding	Biotin-DEQDPQEAT[pY]AQLN (also called mutated KIR ITIM peptide) [phosphorylated p58.2.1-V301A peptide]
